Source: patent US20200325209A1 (CSL, published 2020)

B1: HSA [K317E/M329V/K372E/F377I/I388T/A552V/G572R] (clone 3.9), membrane-tethered on CHO cells (other)
chain: DAHKSEVAHRFKDLGEENFKALVLIAFAQYLQQCPFEDHVKLVNEVTEFAKTCVADESAENCDKSLHTLFGDKLCTVATLRETYGEMADCCAKQEPERNECFLQHKDDNPNLPRLVRPEVDVMCTAFHDNEETFLKKYLYEIARRHPYFYAPELLFFAKRYKAAFTECCQAADKAACLLPKLDELRDEGKASSAKQRLKCASLQKFGERAFKAWAVARLSQRFPKAEFAEVSKLVTDLTKVHTECCHGDLLECADDRADLAKYICENQDSISSKLKECCEKPLLEKSHCIAEVENDEMPADLPSLAADFVESKDVCENYAEAKDVFLGVFLYEYARRHPDYSVVLLLRLAKTYETTLEKCCAAADPHECYAEVFDEIKPLVEEPQNLTKQNCELFEQLGEYKFQNALLVRYTKKVPQVSTPTLVEVSRNLGKVGSKCCKHPEAKRMPCAEDYLSVVLNQLCVLHEKTPVSDRVTKCCTESLVNRRPCFSALEVDETYVPKEFNAETFTFHADICTLSEKERQIKKQTALVELVKHKPKATKEQLKAVMDDFVAFVEKCCKADDKETCFAEERKKLVAASQAALGL
notes: not shown: Myc tag and PDGFR transmembrane domain
B2: rat FcRn/β2m, soluble recombinant (receptor)
chain: AEPRLPLMYHLAAVSDLSTGLPSFWATGWLGAQQYLTYNNLRQEADPCGAWIWENQVSWYWEKETTDLKSKEQLFLEAIRTLENQINGTFTLQGLLGCELAPDNSSLPTAVFALNGEEFMRFNPRTGNWSGEWPETDIVGNLWMKQPEAARKESEFLLTSCPERLLGHLERGRQNLEWKEPPSMRLKARPGNSGSSVLTCAAFSFYPPELKFRFLRNGLASGSGNCSTGPNGDGSFHAWSLLEVKRGDEHHYQCQVEHEGLAQPLTVDLDSPARSS
b2m: IQKTPQIQVYSRHPPENGKPNFLNCYVSQFHPPQIEIELLKNGKKIPNIEMSDLSFSKDWSFYILAHTEFTPTETDVYACRVKHVTLKEPKTVTWDRDM
notes: Extracellular domain inferred from 'soluble'
B3: mouse FcRn/β2m, soluble recombinant (receptor)
chain: SETRPPLMYHLTAVSNPSTGLPSFWATGWLGPQQYLTYNSLRQEADPCGAWMWENQVSWYWEKETTDLKSKEQLFLEALKTLEKILNGTYTLQGLLGCELASDNSSVPTAVFALNGEEFMKFNPRIGNWTGEWPETEIVANLWMKQPDAARKESEFLLNSCPERLLGHLERGRRNLEWKEPPSMRLKARPGNSGSSVLTCAAFSFYPPELKFRFLRNGLASGSGNCSTGPNGDGSFHAWSLLEVKRGDEHHYQCQVEHEGLAQPLTVDLDSSARSS
b2m: IQKTPQIQVYSRHPPENGKPNILNCYVTQFHPPHIEIQMLKNGKKIPKVEMSDMSFSKDWSFYILAHTEFTPTETDTYACRVKHASMAEPKTVYWDRDM
notes: Extracellular domain inferred from 'soluble'; also called murineFcRn; murine FcRn/β2m

What was measured:
[1] = molecular target: T1, human neonatal Fc receptor FcRn/β2m, soluble recombinant (human, UniProt P55899 24-297; P61769 21-119, alexa-488 label (Examples 2-4); minimal chemical biotinylation with Sulfo-NHS-LC-LC-Biotin (Examples 5-6)); assay: flow cytometry, labelled FcRn on CHO-displayed HSA, pH 5.4
T1 construct: Heterodimer; extracellular domain is inferred; also called hFcRn/β2M; hsFcRn
From the text: (§1) Background fluorescence due to non-specific binding of the labelled FcRn to the cells was subtracted from the value obtained.

[2] = molecular target: T1, human neonatal Fc receptor FcRn/β2m, …; assay: flow cytometry, labelled FcRn on CHO-displayed HSA, pH 7.3
From the text: as §1

[3] = molecular target: T2, HSA [K573Y], soluble (human, UniProt P02768 25-609); assay: SPR, FcRn over immobilised HSA, pH 6.0, 1:1 model; pH 6.0
Description: (§2) Spot 3 of each flow cell was activated/deactivated and used for reference subtraction. The flow rate of FcRn/β2m was kept constant at 30 μL/min
(§3) A concentration range of 2 to 0.007 μM (pH6.0) and 20 to 0.078 μM (pH7.3) was used and association and dissociation phases were monitored for 180 and 600 seconds respectively.
(§4) Regeneration of the surface was performed as previously described.

[4] = molecular target: T3, HSA [Q522L/G572R], soluble (human, UniProt P02768 25-609); assay: as above
Description: as §2, §3, §4

[5] = molecular target: T4, HSA [A552V/G572R], soluble (human, UniProt P02768 25-609); assay: as above
T4 construct: also called A522V/G572R
Description: as §2, §3, §4

[6] = molecular target: HSA [G572R], soluble (human, UniProt P02768 25-609); assay: SPR, FcRn over immobilised HSA, pH 6.0
[7] = molecular target: T5, HSA WT, soluble (human, UniProt P02768 25-609); assay: SPR, FcRn over immobilised HSA, pH 6.0
T5 construct: also called wild-type HSA; recombinant wild-type HSA

[8] = molecular target: HSA [Q522L/A552V], soluble (human, UniProt P02768 25-609); assay: SPR, FcRn over immobilised HSA, pH 6.0
[9] = molecular target: T2, HSA [K573Y], soluble; assay: SPR, FcRn over immobilised HSA, pH 6.0
[10] = molecular target: T3, HSA [Q522L/G572R], soluble; assay: SPR, FcRn over immobilised HSA, pH 6.0
[11] = molecular target: T4, HSA [A552V/G572R], soluble; assay: SPR, FcRn over immobilised HSA, pH 6.0

T1 sequence (P55899 24-297 limits assumed, chain 1 of 2): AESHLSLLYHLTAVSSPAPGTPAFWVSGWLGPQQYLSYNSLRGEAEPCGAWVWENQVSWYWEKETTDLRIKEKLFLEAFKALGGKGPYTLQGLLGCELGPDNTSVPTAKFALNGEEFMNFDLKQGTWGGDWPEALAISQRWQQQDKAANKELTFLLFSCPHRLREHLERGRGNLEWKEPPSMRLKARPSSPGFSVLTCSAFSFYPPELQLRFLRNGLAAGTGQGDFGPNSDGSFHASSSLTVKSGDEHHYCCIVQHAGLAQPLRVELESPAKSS
T1 sequence (P61769 21-119 limits assumed, chain 2 of 2): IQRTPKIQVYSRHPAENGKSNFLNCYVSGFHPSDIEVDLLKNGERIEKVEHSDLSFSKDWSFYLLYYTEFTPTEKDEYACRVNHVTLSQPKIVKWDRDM

Row | Binder | fold change to WT [1] | geoMFI [1] | fold change to WT [2] | geoMFI [2] | Kd [3] | Kd [4] | Kd [5] | binding result [6] | binding result [7] | binding result [8] | binding result [9] | binding result [10] | binding result [11]
1 | B1 | 20.8 fold | 34800 | 1.8 fold | 28.8 |  |  |  |  |  |  |  |  | 
2 | B2 |  |  |  |  | 989 nM | 4.75 µM | 4.82 µM | no binding (tested: 2 µM) | no binding (tested: 2 µM) | no binding (tested: 2 µM) |  |  | 
3 | B3 |  |  |  |  |  |  |  | no binding (tested: 2 µM) |  | no binding (tested: 2 µM) | no binding (tested: 2 µM) | no binding (tested: 2 µM) | no binding (tested: 2 µM)
